According to patent US7057012B1, “PTH functional domain conjugate peptides, derivatives thereof and novel tethered ligand-receptor molecules” (The General Hospital Corporation, priority 1998, dated 2006):
Like-named read-outs stand apart in the source and are kept apart here.

What was measured:
COS-7 cells [1] = assay: basal cAMP signaling of tethered ligand/receptor constructs in transiently transfected COS-7 cells; assay type: cell-based; details: for level of basal cAMP signaling: no agonist
Description: (§1) Cell Culture: COS-7 cells were cultured at 37° C. in T-75 flasks ([…] in Dulbecco's modified Eagle's medium (DMEM) supplemented with fetal bovine serum (10%), penicillin G (20 units/ml), streptomycin sulfate (20 μg/ml) and amphotericin B (0.05 μg/ml) in a humidified atmosphere containing 5% CO2. Cells were sub-cultured in 24-well plates and, when confluent, were treated with fresh media and shifted to 33° C. for 12 to 24 h prior to the assay (Bergwitz, C., et al., J. Biol. Chem. 272:28861–28868 (1997); Abell, A., et al., J. Biol. Chem. 271:4518–4527 (1996)).
PTH Receptor mutagenesis and COS-7 cell expression: The pcDNA-1-based plasmid encoding the intact HPTH-1 receptor (HK-WT in reference (Schipani, E., et al., Endocrinol. 132:2157–2165 (1993)) and herein called hP1R-WT) was used for studies in COS-7 cells. The truncated human PTH-1 receptor (hP1R-de1Nt) (FIG. 18) was constructed from the HK-WT plasmid by oligonucleotide-directed mutagenesis (Kunkel, T. A., Proc. Natl. Acad. Sci. USA 82:488–492 (1985)). This mutant receptor is deleted for residues 24 to 181 and, assuming that signal peptidase cleavage occurs between Ala^22 and Tyr^23 (Nielsen, H., et al., Protein Engineering 10:1–6 (1997)), is predicted to have Tyr^23 as the N-terminal residue joined directly to Glu^182 located at or near the boundary of the first transmembrane domain. A similarly truncated rat PTH receptor was described by us previously (Luck, M., et al., Molec. Endocrinol. 13:670–680 (1999)). The tethered human PTH-1 receptor [hP1R-Tether(1–9)] (hTether-1 in FIG. 17) is based on the hP1R-de1NT construct, and has PTH(1–9) and a four glycine spacer (AVSEIQLMHGGGG) (SEQ ID NO: 72) inserted between residues 23 and 182. Assuming that signal peptidase cleavage occurs between Ala^22 and Tyr^23, hP1R-Tether(1–9) is predicted to have Tyr^23 as the N-terminal residue joined directly to Ala of the ligand. Analogs of hP1R-Tether(1–9) were made in a similar fashion. Transient transfections of COS-7 cells were performed using DEAE-dextran and 200 ng of cesium chloride-purified plasmid DNA per well of a 24-well plate, as described previously (Bergwitz, C., et al., J. Biol. Chem. 272:28861–28868 (1997)).
cAMP Stimulation: Stimulation of cells with peptide analogs was performed in 24-well plates. Cells were rinsed with 0.5 mL of binding buffer (50 mM Tris-HCl, 100 mM NaCl, 5 mM KCl, 2 mM CaCl2, 5% heat-inactivated horse serum, 0.5% fetal bovine serum, adjusted to pH 7.7 with HCl) and treated with 200 μL of cAMP assay buffer (Dulbecco's modified Eagle's medium containing 2 mM 3-isobutyl-1-methylxanthine, 1 mg/mL bovine serum albumin, 35 mM Hepes-NaOH, pH 7.4) and 100 μL of binding buffer containing varying amounts of peptide analog (final volume=300 μL). The medium was removed after incubation for 1 h at room temperature, and the cells were frozen (−80° C.), lysed with 0.5 mL 50 mM HCl, and refrozen (−80° C.). The cAMP content of the diluted lysate was determined by radioimmunoassay.

COS-7 cells [2] = assay: agonist-induced cAMP signaling of receptor constructs in transiently transfected COS-7 cells; assay type: cell-based
Description: as §1
PTH Receptor mutagenesis and COS-7 cell expression: The pcDNA-1-based plasmid encoding the intact HPTH-1 receptor (HK-WT in reference (Schipani, E., et al., Endocrinol. 132:2157–2165 (1993)) and herein called hP1R-WT) was used for studies in COS-7 cells. The truncated human PTH-1 receptor (hP1R-de1Nt) (FIG. 18) was constructed from the HK-WT plasmid by oligonucleotide-directed mutagenesis (Kunkel, T. A., Proc. Natl. Acad. Sci. USA 82:488–492 (1985)). […]
cAMP Stimulation: Stimulation of cells with peptide analogs was performed in 24-well plates. […] The cAMP content of the diluted lysate was determined by radioimmunoassay.

B1: hP1R-Tether(1–11): hP1R-Tether construct with the ligand chain extended to position 11, native leucine at 11 (protein)
chain: EIQLMHNLGGGGEVFDRLGMIYTVGYSVSLASLTVAVLILAYFRRLHCTRNYIHMHLFLSFMLRAVSIFVKDAVLYSGATLDEAERLTEEELRAIAQAPPPPATAAAGYAGCRVAVTFFLYFLATNYYWILVEGLYLHSLIFMAFFSEKKYLWGFTVFGWGLPAVFVAVWVSVRATLANTGCWDLSSGNKKWIIQVPILASIVLNFILFINIVRVLATKLRETNAGRCDTRQQYRKLLKSTLVLMPLFGVHYIVFMATPYTEVSGTLWQVQMHYEMLFNSFQGFFVAIIYCFCNGEVQAEIKKSWSRWTLALDFKRKARSGSSSYSYGPMVSHTSVTNVGPRVGLGLPLSPRLLPTATTNGHPQLPGHAKPGTPALETLETTPPAMAAPKDDGFLNGSCSGLDEEASGPERPPALLQEEWETVM
- level of basal cAMP signaling (COS-7 cells [1]): moderate, but significant, improvements

B2: hP1R-WT: intact human PTH-1 receptor (protein)
chain: DADDVMTKEEQIFLLHRAQAQCEKRLKEVLQRPASIMESDKGWTSASTSGKPRKDKASGKLYPESEEDKEAPTGSRYRGRPCLPEWDHILCWPLGAPGEVVAVPCPDYIYDFNHKGHAYRRCDRNGSWELVPGHNRTWANYSECVKFLTNETREREVFDRLGMIYTVGYSVSLASLTVAVLILAYFRRLHCTRNYIHMHLFLSFMLRAVSIFVKDAVLYSGATLDEAERLTEEELRAIAQAPPPPATAAAGYAGCRVAVTFFLYFLATNYYWILVEGLYLHSLIFMAFFSEKKYLWGFTVFGWGLPAVFVAVWVSVRATLANTGCWDLSSGNKKWIIQVPILASIVLNFILFINIVRVLATKLRETNAGRCDTRQQYRKLLKSTLVLMPLFGVHYIVFMATPYTEVSGTLWQVQMHYEMLFNSFQGFFVAIIYCFCNGEVQAEIKKSWSRWTLALDFKRKARSGSSSYSYGPMVSHTSVTNVGPRVGLGLPLSPRLLPTATTNGHPQLPGHAKPGTPALETLETTPPAMAAPKDDGFLNGSCSGLDEEASGPERPPALLQEEWETVM
- time of maximal agonist-induced signaling (COS-7 cells [2]): 40 min

B3: hP1R-[R^11]-Tether(1–11): Made from hTether-1 by inserting Asn10-Arg11 between His9 and first Gly of linker (protein)
chain: MGTARIAPGLALLLCCPVLSSAYAVSEIQLMHNRGGGGEVFDRLGMIYTVGYSVSLASLTVAVLILAYFRRLHCTRNYIHMHLFLSFMLRAVSIFVKDAVLYSGATLDEAERLTEEELRAIAQAPPPPATAAAGYAGCRVAVTFFLYFLATNYYWILVEGLYLHSLIFMAFFSEKKYLWGFTVFGWGLPAVFVAVWVSVRATLANTGCWDLSSGNKKWIIQVPILASIVLNFILFINIVRVLATKLRETNAGRCDTRQQYRKLLKSTLVLMPLFGVHYIVFMATPYTEVSGTLWQVQMHYEMLFNSFQGFFVAIIYCFCNGEVQAEIKKSWSRWTLALDFKRKARSGSSSYSYGPMVSHTSVTNVGPRVGLGLPLSPRLLPTATTNGHPQLPGHAKPGTPALETLETTPPAMAAPKDDGFLNGSCSGLDEEASGPERPPALLQEEWETVM
- basal signaling compared with maximum agonist-stimulated response of hP1R-WT (COS-7 cells [1]): approached the maximum response attained by hP1R-WT
- time of maximum level of basal cAMP signaling (COS-7 cells [1]): 40 min
- increase in basal cAMP signaling (COS-7 cells [1]; comparator not restated): 20 fold
- basal signaling compared with maximum agonist-stimulated response of hP1R-WT (COS-7 cells [1]; listed as hP1R-[R^11]Tether-(1–11)): approached the maximum agonist-stimulated response attained by hP1R-wildtype
- level of basal cAMP signaling (COS-7 cells [1]): increased still further
- time of maximal agonist-induced signaling (COS-7 cells [2]): 40 min

B4: hP1R-Tether(1–9): tethered human PTH-1 receptor: PTH(1–9) and four glycine spacer inserted between residues 23 and 182 of hP1R-delNT (protein)
chain: MGTARIAPGLALLLCCPVLSSAYAVSEIQLMHGGGGEVFDRLGMIYTVGYSVSLASLTVAVLILAYFRRLHCTRNYIHMHLFLSFMLRAVSIFVKDAVLYSGATLDEAERLTEEELRAIAQAPPPPATAAAGYAGCRVAVTFFLYFLATNYYWILVEGLYLHSLIFMAFFSEKKYLWGFTVFGWGLPAVFVAVWVSVRATLANTGCWDLSSGNKKWIIQVPILASIVLNFILFINIVRVLATKLRETNAGRCDTRQQYRKLLKSTLVLMPLFGVHYIVFMATPYTEVSGTLWQVQMHYEMLFNSFQGFFVAIIYCFCNGEVQAEIKKSWSRWTLALDFKRKARSGSSSYSYGPMVSHTSVTNVGPRVGLGLPLSPRLLPTATTNGHPQLPGHAKPGTPALETLETTPPAMAAPKDDGFLNGSCSGLDEEASGPERPPALLQEEWETVM
- enhancement in the basal level of cAMP relative to hde1NT (COS-7 cells [1]; absence of any agonist peptide): ~5 fold

B5: hP1R-Tether(1–10): hP1R-Tether construct with the ligand chain extended to position 10 (protein)
chain: EIQLMHNGGGGEVFDRLGMIYTVGYSVSLASLTVAVLILAYFRRLHCTRNYIHMHLFLSFMLRAVSIFVKDAVLYSGATLDEAERLTEEELRAIAQAPPPPATAAAGYAGCRVAVTFFLYFLATNYYWILVEGLYLHSLIFMAFFSEKKYLWGFTVFGWGLPAVFVAVWVSVRATLANTGCWDLSSGNKKWIIQVPILASIVLNFILFINIVRVLATKLRETNAGRCDTRQQYRKLLKSTLVLMPLFGVHYIVFMATPYTEVSGTLWQVQMHYEMLFNSFQGFFVAIIYCFCNGEVQAEIKKSWSRWTLALDFKRKARSGSSSYSYGPMVSHTSVTNVGPRVGLGLPLSPRLLPTATTNGHPQLPGHAKPGTPALETLETTPPAMAAPKDDGFLNGSCSGLDEEASGPERPPALLQEEWETVM
- level of basal cAMP signaling (COS-7 cells [1]): moderate, but significant, improvements
